From patent US20210214414A1 (Pfizer, published 2021)

Assays:
Human SLIT2-N [1] = biological target: T1, Human SLIT2-N (human, UniProt O94813 31-1121, limits assumed); assay: HTRF competition: d2-labelled human SLIT2-N binding to human ROBO2 on HEK293 cells; geometric mean, n=4; Table 2 species panel; geometric mean, n=4
T1 construct: domain: SLIT2-N (N terminal fragment); Soluble analyte in SPR, d2-labelled in HTRF, overexpressed on HEK293 cells in flow cytometry; also called human SLIT2-N (N terminal fragment)
T1 sequence (looked up): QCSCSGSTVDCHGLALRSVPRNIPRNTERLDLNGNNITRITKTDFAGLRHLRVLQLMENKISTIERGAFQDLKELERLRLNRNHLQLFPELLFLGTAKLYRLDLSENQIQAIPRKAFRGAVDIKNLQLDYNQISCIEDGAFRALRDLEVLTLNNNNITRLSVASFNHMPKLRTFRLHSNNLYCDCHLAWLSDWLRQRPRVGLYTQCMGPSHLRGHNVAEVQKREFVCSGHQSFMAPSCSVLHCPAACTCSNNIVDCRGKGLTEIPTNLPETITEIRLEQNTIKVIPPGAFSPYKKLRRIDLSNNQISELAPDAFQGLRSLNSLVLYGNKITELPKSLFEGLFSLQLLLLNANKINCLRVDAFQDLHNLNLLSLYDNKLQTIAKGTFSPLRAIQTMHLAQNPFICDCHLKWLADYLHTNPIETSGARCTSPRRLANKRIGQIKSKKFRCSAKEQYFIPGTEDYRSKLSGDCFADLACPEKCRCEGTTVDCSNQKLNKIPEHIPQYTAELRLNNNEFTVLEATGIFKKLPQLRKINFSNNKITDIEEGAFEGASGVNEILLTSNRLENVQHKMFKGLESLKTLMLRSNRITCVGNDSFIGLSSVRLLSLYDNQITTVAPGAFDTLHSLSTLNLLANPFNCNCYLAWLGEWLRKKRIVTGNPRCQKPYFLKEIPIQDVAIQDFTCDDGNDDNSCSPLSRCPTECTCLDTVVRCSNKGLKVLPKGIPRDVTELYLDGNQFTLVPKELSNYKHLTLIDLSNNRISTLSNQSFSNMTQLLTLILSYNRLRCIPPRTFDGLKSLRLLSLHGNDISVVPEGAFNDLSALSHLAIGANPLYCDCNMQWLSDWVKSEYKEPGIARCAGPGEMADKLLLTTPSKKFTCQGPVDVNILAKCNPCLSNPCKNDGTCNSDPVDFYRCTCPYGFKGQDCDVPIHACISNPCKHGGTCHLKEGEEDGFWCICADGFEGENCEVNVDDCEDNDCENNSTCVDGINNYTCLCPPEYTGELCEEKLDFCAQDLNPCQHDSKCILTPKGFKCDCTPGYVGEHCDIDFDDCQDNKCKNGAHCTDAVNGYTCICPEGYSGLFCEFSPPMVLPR
Experimental: (§1) After incubation, fluorescence at 665 nm and 620 nm was measured on an Envision multilabel plate reader. The HTRF Ratio was calculated as follows: fluorescence at 665 nm/fluorescence at 620 nm×10,000. […] The IC₅₀ for each SLITx-N was determined using an 11-point, 4-fold dilution series with a top concentration of 4000 nM.

Human SLIT2-N [2] = biological target: T1, Human SLIT2-N; assay: HTRF competition: d2-labelled human SLIT2-N binding to human ROBO2 on HEK293 cells (competitor: cell surface ROBO2)
Experimental: as §1

Human SLIT2-N [3] = biological target: T1, Human SLIT2-N; assay: flow cytometry, AF647-labelled ROBO2-Fc 2.2 on HEK293 cells overexpressing human SLIT2-N
Experimental: After incubation, 150 μL of FACS buffer was added per well to wash the cells. After washing, cells were resuspended in buffer for data acquisition on a Fortessa Flow Cytometer.

Mouse SLIT3-N = biological target: T2, Mouse SLIT3-N (mouse, UniProt Q9WVB4 34-1119, limits assumed); assay: HTRF competition: d2-labelled mouse SLIT3-N binding to human ROBO2 on HEK293 cells; geometric mean, n=3
T2 construct: domain: SLIT3-N; d2-labelled in the HTRF assay
T2 sequence (looked up): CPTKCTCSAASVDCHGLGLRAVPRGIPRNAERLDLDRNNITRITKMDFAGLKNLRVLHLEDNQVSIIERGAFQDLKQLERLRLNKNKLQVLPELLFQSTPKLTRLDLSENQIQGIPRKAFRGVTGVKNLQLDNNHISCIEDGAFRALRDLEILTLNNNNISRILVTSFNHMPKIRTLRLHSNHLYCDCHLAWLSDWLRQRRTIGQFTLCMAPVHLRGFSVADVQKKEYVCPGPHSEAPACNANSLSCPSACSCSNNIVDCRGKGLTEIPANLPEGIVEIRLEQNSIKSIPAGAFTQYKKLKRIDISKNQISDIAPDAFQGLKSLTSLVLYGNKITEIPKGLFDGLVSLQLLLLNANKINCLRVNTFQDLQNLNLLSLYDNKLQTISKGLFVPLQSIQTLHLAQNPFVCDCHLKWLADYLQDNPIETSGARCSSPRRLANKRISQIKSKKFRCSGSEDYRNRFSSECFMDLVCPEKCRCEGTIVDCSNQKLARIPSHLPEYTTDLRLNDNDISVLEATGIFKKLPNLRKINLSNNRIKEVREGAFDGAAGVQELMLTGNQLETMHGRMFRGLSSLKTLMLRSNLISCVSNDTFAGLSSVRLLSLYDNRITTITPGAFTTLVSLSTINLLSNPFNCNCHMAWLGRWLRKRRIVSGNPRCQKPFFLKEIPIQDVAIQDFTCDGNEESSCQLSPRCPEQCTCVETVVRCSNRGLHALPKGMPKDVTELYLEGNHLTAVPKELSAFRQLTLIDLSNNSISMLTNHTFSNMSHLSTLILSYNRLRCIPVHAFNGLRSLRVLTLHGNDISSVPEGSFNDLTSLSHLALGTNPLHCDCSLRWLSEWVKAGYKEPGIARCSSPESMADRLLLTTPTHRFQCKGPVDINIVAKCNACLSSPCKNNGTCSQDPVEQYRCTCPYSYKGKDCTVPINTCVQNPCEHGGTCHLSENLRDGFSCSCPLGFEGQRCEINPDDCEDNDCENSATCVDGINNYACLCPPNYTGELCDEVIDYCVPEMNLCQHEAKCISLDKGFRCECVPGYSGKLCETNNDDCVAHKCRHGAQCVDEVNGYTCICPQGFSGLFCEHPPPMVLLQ
Experimental: as §1

IC50 (Human SLIT2-N [1]): 3.9 nM
IC50 (Human SLIT2-N [2]): 7 nM
EC50 (Human SLIT2-N [3]): 8.6 nM
IC50 (Mouse SLIT3-N): 4.3 nM
B1: ROBO2-Fc 2.2 (Fc fusion)
chain: SRLRQEDFPPRIVEHPSDVIVSKGEPTTLNCKAEGRPTPTIEWYKDGERVETDKDDPRSHRMLLPSGSLFFLRIVHGRRSKPDEGSYVCVARNYLGEAVSRNASLEVALLRDDFRQNPTDVVVAAGEPAILECQPPRGHPEPTIYWKKDKVRIDDKEERISIRGGKLMISNTRKSDAGMYTCVGTNMVGERDSDPAELTVFERGGSGGSEPKSSDKTHTCPPCPAPEAAGAPSVFLFPPKPKDTLMISRTPEVTCVVVDVSHEDPEVKFNWYVDGVEVHNAKTKPREEQYNSTYRVVSVLTVLHQDWLNGKEYKCKVSNKALPAPIEKTISKAKGQPREPQVYTLPPSREEMTKNQVSLTCLVKGFYPSDIAVEWESNGQPENNYKTTPPVLDSDGSFFLYSKLTVDKSRWQQGNVFSCSVMHEALHNHYTQKSLSLSPG
notes: Labelled with Alexa Fluor 647 in the flow cytometry assay; also called ROBO-Fc 2.2; ROBO2-Fc 2.2-AF647
